Series [1] has as its target T1, bsKu core L30G (Bacillus subtilis, UniProt O34859 18-244, L30G).
T1 sequence: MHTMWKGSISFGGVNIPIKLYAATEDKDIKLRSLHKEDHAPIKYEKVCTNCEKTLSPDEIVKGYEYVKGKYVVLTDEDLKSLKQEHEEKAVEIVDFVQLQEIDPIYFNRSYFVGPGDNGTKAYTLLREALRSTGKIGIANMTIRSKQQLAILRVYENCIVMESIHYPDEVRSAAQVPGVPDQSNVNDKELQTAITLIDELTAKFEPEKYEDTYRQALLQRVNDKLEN
The series can be described thus: EMSA; no significant loss of binding; EMSA: 20 mM HEPES pH 7.5, 150 mM KCl, 1 mM DTT, 50 nM DNA, 30 min at 4°C, 15% native PAGE in 0.5x TBE, SYBR Gold; SEC: same buffer, protein:DNA 1:2, 1 h at 4°C, Superdex 75. To be noted: protein: recombinant; tags: N-terminal 8xHis-MBP, cleaved; chain copies: 2; blunt.

Series [2] concerns the target T2, bsKu core N32E (Bacillus subtilis, UniProt O34859 18-244, N32E).
T2 sequence: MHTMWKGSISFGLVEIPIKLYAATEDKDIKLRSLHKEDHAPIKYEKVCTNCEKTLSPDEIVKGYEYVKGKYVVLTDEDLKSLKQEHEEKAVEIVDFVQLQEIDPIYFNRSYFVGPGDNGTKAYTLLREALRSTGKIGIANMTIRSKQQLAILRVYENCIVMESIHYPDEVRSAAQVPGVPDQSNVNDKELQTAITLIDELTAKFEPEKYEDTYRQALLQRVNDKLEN
The description is as above. To be noted: protein: recombinant; tags: N-terminal 8xHis-MBP, cleaved; chain copies: 2; blunt.

B1: 13-bp DNA (dsDNA)
DNA 1: GTACCTGTAGAAG
DNA 2: CTTCTACAGGTAC
As for B1, the binding result in series [1] and in series [2] was “binds” each time.

These data come from PMC12784961, “Structure of Bacillus subtilis Ku-mediated DNA synaptic complex”.
